Source: the supplement of paper PMC10126150
± gives the standard deviation of the averaged measurements.

Each sequence was assayed on ATP (assay: switch fluorescence ratio, 500 uM ATP over buffer (Cy3 cluster intensity, sum of 5 cycles each) (fold (ratio)); higher = stronger signal-on switching upon ATP binding; sequences stand for … in TCGTCGGCAGCGTCAGATGTGTATAAGAGACAGTTTTTTTTTTTTTTTTTTTTTTTTT…TC). Details: aptamer strand: ATP DNA aptamer (quencher-CACCTGGGGGAGTATTGCGGAGGAAGG + anchor), 100 nM annealed; ATP concentration: 500 uM.
Summary of the method: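 For every switch-domain sequence, the fluorescence ratio is the mean of per-cluster values, each being summed target-cycle Cy3 intensity over summed buffer-cycle Cy3 intensity. Clusters outside 100-1000 RFU were excluded. On a modified Illumina MiSeq flow-cell, the Cy3-labelled switching-strand clusters were annealed to 100 nM quencher-labelled ATP aptamer, imaged in selection buffer and then after 15 min with 500 uM ATP at 22 °C. Five such cycles were run, with NaOH stripping and re-annealing between them.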
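Also: ATP exposure 15 min at 22 °C before imaging.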

First: AAACTGGGAT
Second: AAACTGTACT
The switch fluorescence ratio of the first is lower: 1.01 ± 0.033 for the first, 1.425 ± 0.0099 for the second.

AAACTTAGCA and AAACTTCGGG are within error of each other in switch fluorescence ratio: 1.02 ± 0.012 for the first, 1 ± 0.026 for the second.

AAACTTGGGG and AAAGAAAGGT are within error of each other in switch fluorescence ratio: 1 ± 0.035 for the first, 1.02 ± 0.024 for the second.

Compared with AAAGAAGTGG, AAAGAATTCA is higher in switch fluorescence ratio: 0.959 ± 0.027 for the first, 1.05 ± 0.051 for the second.

AAAGACGCGG and AAAGACGTTT are within error of each other in switch fluorescence ratio: 0.992 ± 0.015 for the first, 1 ± 0.016 for the second.

Going from AAAGAGCAAG to AAAGATAGGC, the switch fluorescence ratio falls from 1.11 ± 0.034 to 0.954 ± 0.072.

AAAGATCGGA and AAAGATTGAC are within error of each other in switch fluorescence ratio: 0.983 ± 0.038 for the first, 1.01 ± 0.08 for the second.

AAAGCACTAG and AAAGCACTTT are within error of each other in switch fluorescence ratio: 1.11 ± 0.055 for the first, 1.099 ± 0.0022 for the second.

AAAGCCCGCG and AAAGCGGATT are within error of each other in switch fluorescence ratio: 0.961 ± 0.066 for the first, 1 ± 0.018 for the second.

AAAGCTCGCT and AAAGCTTTGG are within error of each other in switch fluorescence ratio: 0.973 ± 0.015 for the first, 0.963 ± 0.021 for the second.

AAAGGAAATT and AAAGGAGGTA are the same in switch fluorescence ratio: 1 ± 0.033 for the first, 1 ± 0.012 for the second.

AAAGGATCGG and AAAGGCAAAG are within error of each other in switch fluorescence ratio: 0.9923 ± 0.0056 for the first, 0.9971 ± 0.0082 for the second.

First: AAAGGCGTGG
Second: AAAGGCTTGG
The switch fluorescence ratio of the first is lower: 0.9555 ± 0.0064 for the first, 0.992 ± 0.015 for the second.

AAAGGGAAAA and AAAGGGACGT are within error of each other in switch fluorescence ratio: 1 ± 0.028 for the first, 0.991 ± 0.051 for the second.

AAAGGGCAAT and AAAGGGCGAT are within error of each other in switch fluorescence ratio: 1.14 ± 0.18 for the first, 0.976 ± 0.011 for the second.

AAAGGGCGGC and AAAGGGGCGC are within error of each other in switch fluorescence ratio: 0.992 ± 0.018 for the first, 0.993 ± 0.035 for the second.

AAAGGGGGCA and AAAGGGGGGC are within error of each other in switch fluorescence ratio: 0.99 ± 0.031 for the first, 1 ± 0.057 for the second.

AAAGGGGGTC and AAAGGGGTAT are within error of each other in switch fluorescence ratio: 1.01 ± 0.039 for the first, 1.03 ± 0.027 for the second.

AAAGGGGTTG and AAAGGGTAAG are within error of each other in switch fluorescence ratio: 1.01 ± 0.072 for the first, 0.975 ± 0.015 for the second.

Compared with AAAGGGTCGA, AAAGGGTGAG is lower in switch fluorescence ratio: 1.02 ± 0.03 for the first, 0.9726 ± 0.0064 for the second.

Going from AAAGGGTGCT to AAAGGTAACG, the switch fluorescence ratio falls from 1.1 ± 0.015 to 1.001 ± 0.0021.

Going from AAAGGTCAT to AAAGGTGCCT, the switch fluorescence ratio rises from 0.9933 ± 0.0018 to 1.05 ± 0.031.

AAAGGTGGCG and AAAGGTTTAC are within error of each other in switch fluorescence ratio: 1.07 ± 0.19 for the first, 0.978 ± 0.025 for the second.

Going from AAAGTACTCG to AAAGTAGTGT, the switch fluorescence ratio falls from 1.12 ± 0.0043 to 1.024 ± 0.004.

AAAGTCATGT and AAAGTCGCGC are within error of each other in switch fluorescence ratio: 1.02 ± 0.05 for the first, 1.01 ± 0.018 for the second.

AAAGTCTGAT and AAAGTCTTGT are within error of each other in switch fluorescence ratio: 0.959 ± 0.027 for the first, 1.01 ± 0.035 for the second.

AAAGTGAAGG and AAAGTGGGCG are within error of each other in switch fluorescence ratio: 0.996 ± 0.027 for the first, 1.13 ± 0.18 for the second.

Going from AAAGTGTGCC to AAAGTGTTGC, the switch fluorescence ratio rises from 0.962 ± 0.013 to 1.05 ± 0.042.

AAAGTGTTGG and AAAGTGTTTC are within error of each other in switch fluorescence ratio: 1.02 ± 0.022 for the first, 0.986 ± 0.029 for the second.

First: AAAGTTATAC
Second: AAAGTTCGTA
The switch fluorescence ratio of the first is higher: 1.12 ± 0.037 for the first, 0.985 ± 0.039 for the second.

Compared with AAAGTTGCTA, AAAGTTTACA is higher in switch fluorescence ratio: 0.985 ± 0.019 for the first, 1.03 ± 0.014 for the second.

AAAGTTTTCC and AAATAAAAAG are within error of each other in switch fluorescence ratio: 1.08 ± 0.074 for the first, 1.01 ± 0.027 for the second.

AAATAAACGG and AAATAAGGAG are within error of each other in switch fluorescence ratio: 1.08 ± 0.14 for the first, 1.02 ± 0.033 for the second.

AAATAATGAT and AAATAATTCG are within error of each other in switch fluorescence ratio: 1 ± 0.021 for the first, 0.997 ± 0.032 for the second.

AAATAATTTC and AAATACAAGG are within error of each other in switch fluorescence ratio: 1 ± 0.027 for the first, 1.15 ± 0.24 for the second.

AAATACGTAT and AAATAGAGTT are within error of each other in switch fluorescence ratio: 1.04 ± 0.046 for the first, 0.998 ± 0.013 for the second.

First: AAATATTTTA
Second: AAATCACGTC
The switch fluorescence ratio of the first is lower: 0.999 ± 0.015 for the first, 1.07 ± 0.019 for the second.

AAATCAGATA and AAATCCTATT are within error of each other in switch fluorescence ratio: 0.987 ± 0.033 for the first, 0.982 ± 0.016 for the second.

AAATCGAAAC and AAATCGGAAT are within error of each other in switch fluorescence ratio: 1.03 ± 0.038 for the first, 1.25 ± 0.27 for the second.

AAATCGGCGG and AAATCGGGTT are within error of each other in switch fluorescence ratio: 0.991 ± 0.05 for the first, 1.15 ± 0.28 for the second.

First: AAATCGTTCC
Second: AAATCGTTTT
The switch fluorescence ratio of the first is higher: 2.14 ± 0.082 for the first, 0.972 ± 0.047 for the second.

AAATCTAGAC and AAATCTCTTA are within error of each other in switch fluorescence ratio: 0.998 ± 0.011 for the first, 0.997 ± 0.015 for the second.

AAATCTGCTG and AAATCTGTCA are within error of each other in switch fluorescence ratio: 1 ± 0.061 for the first, 1.03 ± 0.02 for the second.

Going from AAATCTTAAA to AAATGAATGG, the switch fluorescence ratio rises from 0.9917 ± 0.0023 to 1.0177 ± 0.00097.

AAATGACAGC and AAATGACGGC are within error of each other in switch fluorescence ratio: 1.06 ± 0.037 for the first, 0.988 ± 0.15 for the second.

AAATGACGTC and AAATGATTGG are within error of each other in switch fluorescence ratio: 1.01 ± 0.023 for the first, 0.982 ± 0.019 for the second.

AAATGCCGTT and AAATGCTAGC are within error of each other in switch fluorescence ratio: 0.982 ± 0.015 for the first, 1.01 ± 0.039 for the second.

AAATGCTTAT and AAATGGAACC are the same in switch fluorescence ratio: 1.04 ± 0.022 for the first, 1.04 ± 0.065 for the second.

AAATGGGAGC and AAATGGGGAC are within error of each other in switch fluorescence ratio: 0.99 ± 0.031 for the first, 0.9777 ± 0.0029 for the second.

First: AAATGGGGAT
Second: AAATGGGTAG
The switch fluorescence ratio of the first is higher: 1.01 ± 0.032 for the first, 0.9692 ± 0.0062 for the second.
